Data as given in patent publication US20160168251A1 (MorphoSys, published 2016).

Columns and labels:
[1] = target: T1, human NPRB on HEK293 cells, without added ligand (human, UniProt P20594 23-1047); test: FACS, HEK NPRB cells without ligand
T1 construct: whole, on cells; also called HEK NPRB cells; natriuretic peptide receptor B
T1 sequence (looked up): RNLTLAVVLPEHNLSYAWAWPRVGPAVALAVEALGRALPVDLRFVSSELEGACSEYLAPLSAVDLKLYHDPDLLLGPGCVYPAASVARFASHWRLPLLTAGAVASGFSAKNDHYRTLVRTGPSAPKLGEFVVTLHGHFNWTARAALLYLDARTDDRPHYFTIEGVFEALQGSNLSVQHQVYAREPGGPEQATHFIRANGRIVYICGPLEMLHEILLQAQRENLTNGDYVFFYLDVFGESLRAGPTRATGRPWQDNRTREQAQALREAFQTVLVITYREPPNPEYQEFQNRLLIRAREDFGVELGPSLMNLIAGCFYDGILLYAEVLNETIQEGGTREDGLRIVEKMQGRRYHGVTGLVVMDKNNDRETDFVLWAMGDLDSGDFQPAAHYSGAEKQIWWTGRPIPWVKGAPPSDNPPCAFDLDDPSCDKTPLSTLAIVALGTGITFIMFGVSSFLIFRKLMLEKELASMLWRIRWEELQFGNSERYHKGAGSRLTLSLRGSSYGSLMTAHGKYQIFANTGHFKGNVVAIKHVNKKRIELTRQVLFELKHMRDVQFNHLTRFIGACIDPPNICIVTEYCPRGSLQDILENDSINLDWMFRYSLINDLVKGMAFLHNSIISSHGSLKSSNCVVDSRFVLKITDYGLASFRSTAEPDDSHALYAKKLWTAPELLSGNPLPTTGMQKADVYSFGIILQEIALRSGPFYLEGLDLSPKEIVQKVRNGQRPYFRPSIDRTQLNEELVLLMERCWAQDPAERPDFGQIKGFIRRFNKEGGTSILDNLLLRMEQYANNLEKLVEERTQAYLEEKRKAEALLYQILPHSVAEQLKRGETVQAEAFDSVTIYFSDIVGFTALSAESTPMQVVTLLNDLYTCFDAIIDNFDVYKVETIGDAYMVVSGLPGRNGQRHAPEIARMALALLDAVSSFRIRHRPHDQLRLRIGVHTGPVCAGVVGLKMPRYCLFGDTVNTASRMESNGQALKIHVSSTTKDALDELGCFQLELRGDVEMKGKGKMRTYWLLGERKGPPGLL
Method: (§1) HEK NPRA cells are detached with Accutase (PAA Laboratories GmbH, Cat. No. L11-007, Austria), harvested by centrifugation (900 rpm, 4 minutes) and resuspended in FACS buffer (PBS/3% FCS/0.02% NaN3) to a final concentration of 10⁶ cells/ml. 100 μl of the cell suspension is transferred to each well of a 96 round bottom plate (TC Microwell 96U, Nunc). […] Cells are washed in 150 μl of FACS buffer, pelleted and resuspended in 50 μl of the solution containing the primary antibody comprising a BEL extract of Fabs, a diluted BEL extract or purified antibody diluted in FACS buffer and incubated on ice for 30 min. Cells are washed again in FACS buffer and resuspended in 50 μl of FACS buffer containing the secondary antibody (R-Phycoerythrin-conjugated Affipure F(ab′)₂ Fragment Goat Anti-Human IgG, Dianova) and incubated on ice for 45 min. Cells are washed twice with FACS buffer and resuspended in 200 μl of FACS buffer for analysis in the FACS Array (BD Biosciences).

[2] = target: T2, human NPRB on HEK293 cells in the presence of CNP (human, UniProt P20594 23-1047; P23582 105-126); test: FACS, HEK NPRB cells with 100 nM CNP
T2 construct: whole, on cells;mature; also called HEK NPRB cells + 100 nM CNP
T2 sequence (P23582 105-126 limits assumed, chain 2 of 2, one chain of several): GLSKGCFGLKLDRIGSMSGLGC
Method: as §1

[3] = target: T3, rhesus monkey NPRA on HEK cells bound to ANP (rhesus monkey, UniProt F7HE88 33-1061; P01160 124-151, chain 2: ANP is cyclic, its 17-residue ring closed by a disulfide bond between its two cysteines); test: KinExA whole cell binding (Kd,app), HEK cells with rhesus NPRA, ANP bound
T3 construct: also called Rhesus NPRA
T3 sequence: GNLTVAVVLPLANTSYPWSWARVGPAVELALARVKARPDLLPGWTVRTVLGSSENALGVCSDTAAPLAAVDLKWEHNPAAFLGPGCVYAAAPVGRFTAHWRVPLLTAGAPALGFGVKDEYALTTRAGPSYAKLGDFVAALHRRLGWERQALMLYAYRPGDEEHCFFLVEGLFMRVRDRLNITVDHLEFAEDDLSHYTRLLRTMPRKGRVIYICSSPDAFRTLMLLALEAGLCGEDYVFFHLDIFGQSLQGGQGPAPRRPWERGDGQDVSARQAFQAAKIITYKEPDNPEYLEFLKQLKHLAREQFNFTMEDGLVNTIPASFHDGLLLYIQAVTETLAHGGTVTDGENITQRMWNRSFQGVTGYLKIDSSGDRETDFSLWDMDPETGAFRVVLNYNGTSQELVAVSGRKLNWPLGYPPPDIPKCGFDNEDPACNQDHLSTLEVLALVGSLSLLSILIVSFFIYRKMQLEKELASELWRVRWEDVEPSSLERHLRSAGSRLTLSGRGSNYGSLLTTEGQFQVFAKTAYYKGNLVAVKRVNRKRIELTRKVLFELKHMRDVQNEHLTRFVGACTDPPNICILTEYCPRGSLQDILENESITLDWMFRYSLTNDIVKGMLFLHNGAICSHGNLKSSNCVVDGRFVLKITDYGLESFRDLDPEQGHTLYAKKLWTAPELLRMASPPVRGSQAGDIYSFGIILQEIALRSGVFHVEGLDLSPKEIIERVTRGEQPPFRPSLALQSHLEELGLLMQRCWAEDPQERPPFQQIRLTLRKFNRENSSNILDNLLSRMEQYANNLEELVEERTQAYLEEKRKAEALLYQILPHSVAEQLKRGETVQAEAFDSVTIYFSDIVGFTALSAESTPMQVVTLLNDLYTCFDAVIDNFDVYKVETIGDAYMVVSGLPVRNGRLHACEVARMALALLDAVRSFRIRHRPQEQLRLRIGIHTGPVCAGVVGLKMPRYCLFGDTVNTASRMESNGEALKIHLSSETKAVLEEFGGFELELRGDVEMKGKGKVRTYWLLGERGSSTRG
T3 sequence (peptide): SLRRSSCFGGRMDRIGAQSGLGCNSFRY
Method: Initial species cross-reactivity studies are performed using HEK cell lines overexpressing rat, canine and rhesus monkey NPRA. […] These apparent Kd values are obtained by globally fitting the data for two antibody concentrations.

| Binder | binding result [1] | binding result [2] | Kd [3] |
| --- | --- | --- | --- |
| 5502 IgG4_Pro (antibody, V domains shown, Human IgG4_Pro) VH: QVQLQQSGPGLVKPSQTLSLTCAISGDSVSSRSASWSWIRQSPGRGLEWLGRIYYRSKWYNDYAVSVKSRITINPDTSKNQFSLQLNSVTPEDTAVYYCARMDVPSFRYFDVWGQGTLVTVSS VL: not shown | no binding (tested: 20 nM) | no binding (tested: 20 nM) |  |
| 5591 IgG4_Pro (antibody, V domains shown) VH: QVQLQQSGPGLVKPSQTLSLTCAISGDSVSSRSASWSWIRQSPGRGLEWLGRTYYRSHWYYEYAQSVKSRITINPDTSKNQFSLQLNSVTPEDTAVYYCARMDVPSFRYFDVWGQGTLVTVSS VL: not shown |  |  | 0.266 nM |
